Results taken from patent US6939949B2.
pKd: −log10 of the molar value.

How the values were obtained:
[1] = molecular target: UvrA; assay: BIACORE sensor chip (NTA), β domain immobilised, UvrA in solution, in the absence of ATP
[2] = molecular target: UvrA; assay: BIACORE sensor chip (NTA), β domain immobilised, UvrA in solution, in the presence of ATP

- pKd [1]: 5.89
- pKd [2]: 6.30
Substance: TRCF-β (β domain of Thermus thermophilus HB8 transcription-repair coupling factor), His-tagged
